According to paper PMC10905646 (Molecular psychiatry, 2023):

Target: T1, 6×His-tagged Kv3.1 T1 domain (His-31T1) (UniProt P25122 1-190)
T1 sequence (looked up): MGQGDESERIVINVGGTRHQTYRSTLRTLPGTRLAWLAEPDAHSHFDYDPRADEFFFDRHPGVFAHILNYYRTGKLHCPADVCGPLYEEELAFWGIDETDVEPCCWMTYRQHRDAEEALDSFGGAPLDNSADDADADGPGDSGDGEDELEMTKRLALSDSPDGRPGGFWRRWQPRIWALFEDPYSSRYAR
Test: SPR

- Kd: 62.5 ± 18.4 nM
B1: GST-fused MAP6 Mn modules (GST-M115–221; aa 115–221 from MAP6N) (domain or fragment, UniProt Q63560 115-221, looked up)
chain: ADSVMRQDYRAWKVQRPEPSCRPRSEYQPSDAPFERETQYQKDFRAWPLPRRGDHPWIPKPVQIPATSQPSPPVLGMPKRRPQSQERGPIQLSADARDPEGAGGAGV
